Series [1] concerns the molecule itself. As to the kind of experiment: SPR; S100A1, A4, A7, A9 and A13 (~1.3 µg/mL) injected (2 min at 30 µL/min) over immobilised S100A4 and S100A9 (~2.5 kRU); 1 mM Ca++ and 20 µM Zn++; responses at late association phase. On the technique in general: In SPR one partner is held on a chip, and binding of the other changes the refractive index at the surface.
Another series addresses T1, recombinant human S100A9 (human, UniProt P06702 1-114).
T1 construct: S100A9, human, recombinant; No oligomer size was measured here; also called S100A9 homodimer; source: produced in E. coli at Active Biotech
T1 sequence (looked up): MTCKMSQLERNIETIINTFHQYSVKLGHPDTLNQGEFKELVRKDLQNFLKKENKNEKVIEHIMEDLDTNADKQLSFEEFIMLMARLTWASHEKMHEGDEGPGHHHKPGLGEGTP
The description is as above. The conditions noted are these: both partners purified.

B1: recombinant human S100A4 (natural protein)
chain: not shown
notes: S100A4, human, recombinant (R&D Systems); No catalogue number, limits or tags are stated; also called S100A4 homodimer; metastasin; source: bought: R&D Systems
Regarding B1, the binding result (in series [1]; in the series with recombinant human S100A9) was “binds” throughout.

The values are drawn from article PMC3648463, “Common Interactions between S100A4 and S100A9 Defined by a Novel Chemical Probe” (PLoS ONE, 2013).
